From patent US20100242127

System: 75 aa long oligopeptide with the correct sequence of amino acids 351-399 of the α2 subunit of the GABAA receptor

Sequence of recombinant p42 MAP Kinase (Erk2) (New England Biolabs) (P28482 2-360): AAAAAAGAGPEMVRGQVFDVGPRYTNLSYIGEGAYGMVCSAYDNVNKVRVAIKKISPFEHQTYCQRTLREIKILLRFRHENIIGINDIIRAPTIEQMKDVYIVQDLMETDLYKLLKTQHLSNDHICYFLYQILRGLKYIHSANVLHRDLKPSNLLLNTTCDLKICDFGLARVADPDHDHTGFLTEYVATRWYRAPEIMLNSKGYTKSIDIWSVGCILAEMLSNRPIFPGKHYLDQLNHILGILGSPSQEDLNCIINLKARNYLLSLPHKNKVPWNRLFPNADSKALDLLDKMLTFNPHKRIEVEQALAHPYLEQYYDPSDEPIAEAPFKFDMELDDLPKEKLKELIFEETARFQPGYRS

## recombinant p42 MAP Kinase (Erk2) (New England Biolabs)
  average share of total phosphorylation at each of the other nine Ser/Thr residues (in vitro kinase assay, ^32P incorporation): the other nine Ser/Thr residues are phosphorylated at an average of 4% each
  incorporation of ^32P as a readout of phosphorylation (in vitro kinase assay): the construct with the wildtype sequence shows a much higher incorporation of ^32P than the second construct with the mutated T393
  share of total phosphorylation at T393 (in vitro kinase assay, ^32P incorporation): 63% of total phosphorylation occurs at the putative Erk2 site
